{
  "source": "IntAct's records for PubMed 21245319",
  "parents": {"B1": {"name": "Histone-lysine N-methyltransferase SETD7 (Homo sapiens), Q8WTS6 (parent)", "chain": "MDSDDEMVEEAVEGHLDDDGLPHGFCTVTYSSTDRFEGNFVHGEKNGRGKFFFFDGSTLEGYYVDDALQGQGVYTYEDGGVLQGTYVDGELNGPAQEYDTDGRLIFKGQYKDNIRHGVCWIYYPDGGSLVGEVNEDGEMTGEKIAYVYPDERTALYGKFIDGEMIEGKLATLMSTEEGRPHFELMPGNSVYHFDKSTSSCISTNALLPDPYESERVYVAESLISSAGEGLFSKVAVGPNTVMSFYNGVRITHQEVDSRDWALNGNTLSLDEETVIDVPEPYNHVSKYCASLGHKANHSFTPNCIYDMFVHPRFGPIKCIRTLRAVEADEELTVAYGYDHSPPGKSGPEAPEWYQVELKAFQATQQK"}},
  "data": [
    {"variants_of": "B1", "conditions": "with sir1_human SIRT1, Q96EB6", "values": [
      {"variant": "MDSDDEMVEEAVEGHLDDDGLPHGFCTVTYSSTDRFEGNFVHGEKNGRGKFFFFDGSTLEGYYVDDALQGQGVYTYEDGGVLQGTYVDGELNGPAQEYDTDGRLIFKGQYKDNIRHGVCWIYYPDGGSLVGEVNEDGEMTGEKIAYVYPDERTALYGKFIDGEMIEGKLATLMSTEEGRPHFELMPGNSVYHFDKSTSSCISTNALLPDPYESERVYVAESLISSAGEGLFSKVAVGPNTVMSFYNGVRITHQEVDSRDWALNGNTLSLDEETVIDVPEPYNHVSKYCASLGHKANASFTPNCIYDMFVHPRFGPIKCIRTLRAVEADEELTVAYGYDHSPPGKSGPEAPEWYQVELKAFQATQQK", "note": "[H297A]", "effect of a mutation on the interaction": "decreasing interaction strength"}
    ]}
  ]
}
